# Results as given in patent publication US20130197191A1 (Amgen, published 2013).
# T1: recombinant human β-Klotho (human, UniProt Q86Z14 53-996, limits assumed, biotinylated in the AlphaScreen assays (site not stated))
# T1 construct: also called rhβ-klotho; huβKlotho-His
# T1 sequence: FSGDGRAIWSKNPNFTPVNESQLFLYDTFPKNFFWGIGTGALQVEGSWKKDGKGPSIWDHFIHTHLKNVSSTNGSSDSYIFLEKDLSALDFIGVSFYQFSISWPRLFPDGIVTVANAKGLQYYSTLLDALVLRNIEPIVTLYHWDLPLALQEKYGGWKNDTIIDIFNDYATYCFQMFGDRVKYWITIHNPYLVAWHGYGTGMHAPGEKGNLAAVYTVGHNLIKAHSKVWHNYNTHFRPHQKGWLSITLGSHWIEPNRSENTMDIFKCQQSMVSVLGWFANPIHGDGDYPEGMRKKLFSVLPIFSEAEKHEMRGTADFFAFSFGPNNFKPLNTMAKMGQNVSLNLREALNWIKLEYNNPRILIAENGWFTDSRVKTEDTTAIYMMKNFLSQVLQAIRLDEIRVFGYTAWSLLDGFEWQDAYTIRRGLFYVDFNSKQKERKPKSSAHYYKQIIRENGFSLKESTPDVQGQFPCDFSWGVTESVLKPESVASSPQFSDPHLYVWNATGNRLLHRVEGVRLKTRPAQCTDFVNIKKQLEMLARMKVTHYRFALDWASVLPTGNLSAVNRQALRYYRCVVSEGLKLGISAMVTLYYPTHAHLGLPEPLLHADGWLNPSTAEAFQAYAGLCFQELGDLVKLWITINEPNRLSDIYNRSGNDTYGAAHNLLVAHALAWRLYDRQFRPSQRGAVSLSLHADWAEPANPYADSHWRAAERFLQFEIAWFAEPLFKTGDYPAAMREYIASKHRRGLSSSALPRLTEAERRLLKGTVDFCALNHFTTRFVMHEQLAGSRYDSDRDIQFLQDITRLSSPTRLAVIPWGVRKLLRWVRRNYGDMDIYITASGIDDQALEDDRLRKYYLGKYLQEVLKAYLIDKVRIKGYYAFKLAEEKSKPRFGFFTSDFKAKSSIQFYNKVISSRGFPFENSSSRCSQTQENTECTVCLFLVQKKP
# T2: human FGFR1c-Fc (human, UniProt P11362 22-376)
# T2 construct: also called huFGFR1c-Fc; huFGFR1c/Fc
# T2 sequence: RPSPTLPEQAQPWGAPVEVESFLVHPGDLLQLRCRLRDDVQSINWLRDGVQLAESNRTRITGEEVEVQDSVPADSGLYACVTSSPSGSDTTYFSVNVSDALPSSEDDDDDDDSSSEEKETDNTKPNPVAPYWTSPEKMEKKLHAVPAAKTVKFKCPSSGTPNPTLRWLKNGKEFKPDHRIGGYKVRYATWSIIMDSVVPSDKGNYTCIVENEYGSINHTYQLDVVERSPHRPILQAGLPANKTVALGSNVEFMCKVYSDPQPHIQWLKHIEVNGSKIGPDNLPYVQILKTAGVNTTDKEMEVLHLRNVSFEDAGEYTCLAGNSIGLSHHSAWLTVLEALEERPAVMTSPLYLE
# B1: FGFR1c-binding monomer M26 (designed binder)
# chain: CGSSQFTCHNTNICLPRARVCDGVDDCEDNSDEAGCGDSHILPFSTPGPST
# B2: FGFR1c-binding monomer M12 (designed binder)
# chain: CGAGQFTCRSTNICLPLQWVCDGVDDCEDNSDEAGCGDSHILPFSTPGPST
# Target: T1, recombinant human β-Klotho
# Assay: phage panning
row,Binder,binding result
1,CSAFEFHCLSGECIHSSWRCDMDWDCKDQPDQLWCALET (designed binder) [β-Klotho-binding monomer M37],binds
2,CSRAHFHCLSGECIHHHWRCDGGPDCKDKSDEENCPTKRPEEV (designed binder) [β-Klotho-binding monomer M41],binds
3,CRSSEFPCHGYSTCISLSLLCDGVDDCADNSDEESCRAAGHT (designed binder) [β-Klotho-binding monomer M34],binds
4,CVPNQFQCGSGRCLPHPLGCDGVDDCLDGSDEASCAPPT (designed binder) [β-Klotho-binding monomer M26],binds
5,CSAFEFHCLSGECIHSSWRCDWDLDCKDHPDEVMCALEA (designed binder) [β-Klotho-binding monomer M39],binds
6,CVSDEFPCRDNNICVLLHLLCDGVDDCLDSSDETGCAKPT (designed binder) [β-Klotho-binding monomer M27],binds

# Target: T2, human FGFR1c-Fc
# Assay: phage panning
row,Binder,binding result
1,CGSSQFTCHNTNICLPRAWVCDGVDDCEDNSDEKNCSAPASEPPGSL (designed binder) [FGFR1c-binding monomer M29],binds
2,CRLNEFPCGSGSCISLHWVCDSVPDCRDDSDETDCPERT (designed binder) [FGFR1c-binding monomer M33],binds
3,B1,binds
4,"CGAGQFTCRDTNICISRAWRCDGVDDCEDNSDEADCSQDPEFHKV (designed binder, also called R1cM08) [FGFR1c-binding monomer M08]",binds
5,"CLSDQFTCRSTNICLPLQWVCDGDDDCEDNSDEEDCSAPASEPPGSL (designed binder, also called R1cM31) [FGFR1c-binding monomer M31]",binds
6,B2,binds
7,CGPNQFTCRSTNICLSQTWVCDGVDDCEDGSDETNCGRPGPGATSAPAA (designed binder) [FGFR1c-binding monomer M20],binds

# Target: T2, human FGFR1c-Fc
# Assay: phage panning
# Remark: another data set of the same source
row,Binder,binding result
1,"CGANLFTCQSTNICISDAWVCDGVDDCEDNSDETTCSQDPEFHKV (designed binder, also called M23mutM10) [FGFR1c-binding monomer M23mut10]",binds
2,CGTNMFTCQRTNICISDAWVCDGVDDCEDYSDETACSQDPEFHKV (designed binder) [FGFR1c-binding monomer M23mut18],binds
3,"CGSDMFTCRSTNICISKVWVCDGVDDCEDDSDERGCSQDPEFHKV (designed binder, also called M23mutM14) [FGFR1c-binding monomer M23mut14]",binds
4,"CGSNLFTCRSTNICISPAWVCDGVDDCDDDSDETGCSQDPEFHKV (designed binder, also called M23mutM16) [FGFR1c-binding monomer M23mut16]",binds
5,"CGANLFTCRSTNICISPAWVCDGVDDCEDYSDEIGCSQDPEFHKV (designed binder, also called M23mutM11) [FGFR1c-binding monomer M23mut11]",binds
6,CGPNLFTCRSTNICISRAWVCDGVDDCDDESDEQGCSQDPEFHKV (designed binder) [FGFR1c-binding monomer M23mut13],binds
7,"CGSNLFTCRRTNICISKAWVCDGVDDCEDNSDETGCSQDPEFHKV (designed binder, also called M23mutM15) [FGFR1c-binding monomer M23mut15]",binds
8,CGANLFTCRSTNICISPTWVCDGVDDCDDNSDEIGCSQDLEFHKV (designed binder) [FGFR1c-binding monomer M23mut12],binds

# Target: T1, recombinant human β-Klotho
# Assay: phage panning
# Remark: another data set of the same source
row,Binder,binding result
1,CIAAKLCEALDGDGVCHKECDLEECDWDGGDCQRIFLTDPT (designed binder) [β-Klotho-binding monomer LNR_M01],binds
2,CMAYNLCTALVGDGECDQECDTPTCNWDGGDCAVKSAPDST (designed binder) [β-Klotho-binding monomer LNR_M05],binds
3,CNPLYDDHCAAFFGDGGCGPECSLAECLWDGGDCEEERDADVT (designed binder) [β-Klotho-binding monomer LNR_M15],binds
4,CMAYLLCKKYYGDGICRSECDTATCSWDGFDCPVNEIEDLT (designed binder) [β-Klotho-binding monomer LNR_M09],binds
5,CHPLIREYCTHYDGDGECDKGCDSAKCKWDGDDCDMDVLAEVT (designed binder) [β-Klotho-binding monomer LNR_M21],binds
6,CIAAKLCERLDGDGSCQSECGNATCGWDGMDCDEKENDELT (designed binder) [β-Klotho-binding monomer LNR_M08],binds
7,CMAYNLCQALVGDGSCNSECDTETCGWDGMDCATVEGAEAT (designed binder) [β-Klotho-binding monomer LNR_M11],binds
8,CNPLYDPHCRSYFGDGDCGPGCDLAACLWDGGDCPGVAAAELT (designed binder) [β-Klotho-binding monomer LNR_M13],binds
9,CPPHIEDHCERRDGDGVCQKPCDFYGCLWDGVNCDMDLVQELT (designed binder) [β-Klotho-binding monomer LNR_M02],binds
10,CPPHIEDHCERRDGDGVCQKPCDFYGCLWDGVDCDMDLVEELT (designed binder) [β-Klotho-binding monomer LNR_M10],binds
11,CREYISCPNFYGDGRCQQDCNLAKCVWDGLDCADVWSEDLT (designed binder) [β-Klotho-binding monomer LNR_M04],binds
12,CREYSMCTRFDGDGICHEQCGYPRCLWDGLDCANNFDHEVT (designed binder) [β-Klotho-binding monomer LNR_M12],binds
13,CLYQDCKEYYGDGNCSKGCNLAECLWDGGDCGTIFLADVT (designed binder) [β-Klotho-binding monomer LNR_M07],binds
14,CHPLIREYCEKFFGDGGCDSGCNNSRCDWDGDDCGLIQHGDVT (designed binder) [β-Klotho-binding monomer LNR_M14],binds
15,CNPIIQHYCETYDGDGLCESACNFYGCAWDGFDCQVISDKDST (designed binder) [β-Klotho-binding monomer LNR_M03],binds
16,CPAHYGTHCEERDGDGKCHQGCDFATCDWDGMDCGMDLVRELT (designed binder) [β-Klotho-binding monomer LNR_M17],binds
17,CMEAKSCQARDGDGDCGQGCNLAECIWDGMDCRPEWIRELT (designed binder) [β-Klotho-binding monomer LNR_M06],binds
18,CNPKYDAHCASYFGDGECDPACSLAECVWDGDDCDPNFLTDVT (designed binder) [β-Klotho-binding monomer LNR_M16],binds
19,CNPPIGQYCTQLFGDGDCGPDCDLAECVWDGDDCDPVAVPDVT (designed binder) [β-Klotho-binding monomer LNR_M18],binds
20,CNPPIGQYCTQLFGDGDCGPECNLAECVWDGDDCDPVAVPELT (designed binder) [β-Klotho-binding monomer LNR_M20],binds
21,CNPVYDPYCAAFFGDGGCGPHCGLAECVWDGMDCDHKEVRELT (designed binder) [β-Klotho-binding monomer LNR_M19],binds
